# Results from the DeepSol protein solubility set.
# Assay: soluble on expression in E. coli; label from the status in PepcDB or PDB records
row,Sequence,soluble on expression in E. coli
1,MAHHHHHHMKAKGFHHSTPNFNTAEFTDAADPSDLANDIVTESAVAVDFARDIYGPWLVMTDDLQGELFVDHDGFVYYRPANGLGYGIGKLQVLDAGATGTAFTCQLESYSYQPTNTVVPQYGLTFDITGMVKRVTAKSSDYKTFSLVGVWRRSNRNKGAPALLPSQRSSSDAAVEGASAALSPESLDNQGALDGPGEKTSGQFNAAKLSPWDPSTAARPFAPNAELQSVFTQVFPERLRAESHVQRAEASRESPAARHLAGCAGKPSLMHLDLEQYATGKIPGIYYIPDYISVAEEAQILTFIHGTPEELKSKLTKRTCQEWGCTMCESCQKSFVSDANMPQWVQEFIDMQVYDGLFTPTTFPNSVRIHEYHQGDGIGPHCDGPIYVPMVTVLSLASSCLMSFYPKQPLYENHPMDHYNDTFKFGEGDIGRRVPLQSVVMEPRSLLIFSGEGYYHYPHGISDKAEEVLTPEVVGEVVNRRFLRDPHVQSIPRTYRASITTRNLMTRCSHQPARAEYAMKRAWYLYNHLPVPSELFTPAPQLPQQQQQPAGVSAGGSSGSRESSDASATRSPQKRVESFFPACAPPGTVAVDTELREAIYEMRARQEDLRNNVEELKQLVALSIPVQTTFQTETATILNHLSSSVLQLESKVDDLLEEVESAKRKSSTDT,not soluble
2,MAHHHHHHMKCEVDRPVTQNTERNGSEGNVAKNYMTHLYQFQNNEMKKIDASYFENKYLGLFFGASWCRYCVTFIQNINFFKKNFPFIEIIYIPFDKTYNDYVAFLKATDFYSLPFDNYLYICKKFNIKNLPSFMIIAPNNNVLVKDAVQLIKTDTYVNNFKSLVKNYTVHPSHFKIGNRFFDLFCA,soluble
3,MAHHHHHHMKDGDWERRNRLKVYEGIYHVFIRDFKRGSELLLDSISTFASSELMDFNEFILITVVASLPVLSRSELKQQILDSPEVRSANIKDVFHLITVIYNCRYKEVFSALDTVCQHLRGIVYLSQHVNYFFREVRVLVFTQFLDSYSSVTLNSMSAAFGIPPPVLDSMLGTLISNERIACKMDRVSDSITTYRGDTTNFDYHRIVKNGDLLLNRIQKLSRLAEM,not soluble
4,MAHHHHHHMKKAKGSMKRLREGAENGTGGRNSSMKRQKGSTTGALSFAITNNTVTLERKARRQPKVAERCEDDDDEEDVELSKAVQAQTLSFLQHLNSKSSKTFWELRDVAQGKLSAASATTATSSSSQLPSSSRTKAAKGNAKGAKKLADDGEELWRVGGPYISGDQADDTDESERECGRTSDSELQSSTSSSEPSWVTDSSEEEDGGGSDDEAESAPVAAGATSRRSAAEPPKRGGGGGRLFQGGGDGVWDED,soluble
5,MAHHHHHHMKQNGGRETPDGVRYPHIALDVLGQCHSSACVELGNTRVICAVHHPQQLVDEYRGSRGRVACTVRRSASAGSHAAGSAQPSVVTPEKDMSLALEGVAEEVVILEKIPQLLVEVVVEILAEDGGVWDAVATSMSAALVSGGFEMYDLFSACGSALLSDGAVVLDPDAAEESNAQASALVCLMLNSGDICYARHQGSCEPGTVLELVSSAMKGCLSRKSAITTQLINHPIL,not soluble
6,MAHHHHHHMKRGGRKKKGTLSNKLGKGKNDPSEDEEVIESETSSDEMGESNSASEESIDSDADNLSDKEQESQAEKQIQIYFTSNVANEKYQMEDTIYTIPATFKRIDLSRMVKKLLDIKENVSFEFLINDQILRSSIEEFLQLNNILSENVIEIKYILSITKKESTPIDKISEWISKLIIIENRLYCSTFGGSALCYDMSNFAKIDARKVADMSIFAFNVCKNDKLIDGEVKYSESVVGLSNGTIRAFLNEEMDQKIVTRSDLYLGNHDDMVKSIAFNKSGSLLITGGADNKINLYDNKEIVQKLKEYKSENDTNKRKMKHVLTPKKCIHKDVGIITTLTFFNSNNHFLCTGLEKNIKIYDADTADLFATLPYGKAIMCSDILNDNLFVTADEQSVIKLFDVRCLEEKAVISMNENKYFFHDKVITSLWGNKNGIHFLSSSHDGFTNIYDVRLNKFPVYTIQTEDKSKVLSSTWFYRESNNYVINADENNLTLHSF,not soluble
7,MAHHHHHHMKRVANAKHATYDMPPKGLRVRDMLEKTAQQNCNQRKRGKCRKFFFLWKMDKMGDTHLGGQANGRKNLLRSESATDEASLGGNPLKEKLKESPANWGKDKQEEQQSTDRLPLPKVGNKMPEKKPDWFHVPAPTGKKYNELKADLKKLKLHTVCEEAQCPNIGECWNIGTATIMLLGDTCTRGCKFCSIKTSSKPLPPDANEPFNTAKAICEWDINYVVLTSVDRDDLPDGGASHFAKTIELIKFSRPEILIECLVSDFQGNVDSIRKLANSGMEVYAHNIETVRRLQKFVRDRRANYEQSLWVLKTAKEINPLLYTKTSIMLGLGETKQEVLQAMADVRQNNIDVITFGQYLRPTKNHLNVVEYVSPQMFDYYKEEGMKMGFKYIASGPLVRSSYKAGEYFMKNLVEQRRGVKLHAEG,not soluble
8,MAHHHHHHMKVSFTLFFIIYIILNCDVLKCEVESSDSTSFLNLISGQSSSNSDDTVSSSDSRGVVASVSGTVDSDVSRTDSTGNVNSKNSELSETRQNSVEQNNNSNSSDNSIKIKSAFLKENVGVKITGPCDEGFGLVMVPHIIINVDTRNTDIQLGKKSSEINYGIKLRKKGKDEYEEKVGIDLLKNVCETGKNFKFVAYIKGDELIIKWKVIEEGNIPIDIKKFKIKRMSPPITSIQVFSSMSDEKSFVLENKNYVVTNNMPEKCEALATNCFLSGNIDIEKCYQCSLLVENDSKSDVCYNFISRENKEKLNEERFKVKGSTEYEESVESELKGAIDLLISSFYKSDGENGENVLISFEDLNSTLEDDIINFCSLLKLVDLSG,not soluble
9,MAHHHHHHMLCAGKGRVEATQDVARQFLRKCVERLEKNEKDMAVKFDITMTMVSLRCADQCCDLLKPGASYEKMMMGSSPVYGPCLLGLETKVHKTASECVSSFDAGLKNAKEDKEIVAAFFVLKTIKKTGAEEEVHLSSLCIALCGETVAHKTDIRDKAASSPHRLFRYAVDGACVTVSGLWIVSKDVDAREGLEVERKMREVKNQPPRSGNVKRFVDYTYKEIMRQKEKLESATGSEKKTREAQIERMEEMVKDAKELLTSPENTRPKGYSMGR,not soluble
10,MAHHHHHHMLHLHRCAAQGDWLFLKNLHLVLDWASVLEKELCAMPIPSAEFRLIITTEPHDSFPVVLLRMSAKVTIEAPPGMKQNLLQSYTTWDEAFLQGKTKTTSQVLFGLAWFHALLQERRGYIPQGWVKFYEFSSADLKSAADVLCTLSRDKMDWTTVRGLLQECIYGGRLENSHDERVLERLISRIFNDETLVSCDRRLYDDMRVPATNVHRAVVQFIREHLPDADSPSILSLPDNADRAVKEQFALKLTEDLHTVSHLAQVCVSATEAWRTLLAPVLELWKNSALEPEGNAATVSPGETKEDPMSIFFMRELELLVGIVSNLTETFYDLRCVVEGTLIPSPELREEGTELIGGRVPPRWLDLMDGPKDVKLWFALLRRRRDTMMEYAKRPFSPSTPFDLIDFLRPQTFLNALRLYTVRVSNEALVELMLVATPVGRTADRLGVGFTLKGKSIHLQGALLDAQGILSLPSASSPSSTPLSCDVWAAWMSKHNTEGLARIPIYTNAGRTAAIMDLFLSCDSDMAEKLLLGGVAAFLMSV,not soluble
11,MAHHHHHHMLHTTRLWLGGYMMYHRKAMGTMKYSKWKGAHGGISHFYGRTPMVEEVRPNEPITLVDRRIMHYVHHSRLRHFQLFRSYQEKSNSTECKLREGEMLRRRWHRRLQKSFIAFMQFKTMKVLEDQARLVNTYGQAAVNAALGDPWNATDNVARERKSAAVRRQVRALPMVNVVPKHVATMKQIHNDRFNYRWRVN,not soluble
12,MAHHHHHHMLKFRERLSKNCLPAFNLELVYQCAERALEEELNETCSAAKCVPMSGISERIFVGTWRDAADEKLLRQMCITHTLNVARELVDTEEMHRVESVPFVTSKSIPLSDSLDEDIVHHFEDAFEFIRGATRNGRILVYCRRGMSRSAAIVVAYLMESEGMSFCDAHNDVKDKRPCISLNLAFLQRLQEYEEHLEKVRAAARTN,not soluble
13,MAHHHHHHMLKRYERTKLNVLRGERFLRLCEVSYRAVCRDPSLGGAEGIANIEDRTWEMVQRTFQASPERCSLKNAPFSVDGVEICALLRRPDNVFLILVAQYRPPVDAVVLEFPAGLVDNGEDVKSAALRELKEETGYVATEENIISVTDALCCEPGMTDSCCKFVRLFVDGEKEVNRFPQQELDEGEDIEVILLPISLKKGVAGGDTPLQSLNKLLHEKNKGQQRNIVDAKLYMFLDGLSQMSTMFC,soluble
14,MAHHHHHHMLMHSSTLGSVTYTGMKRRSNAASFSTYLRYSSKVVAPIVRSSPRANMGFKRFAASIAPSDLPAPSTTCISSMKRMMGVGLSRTSFKTLFRRSSNSPRYFAPAIRAPRSREKMREEERVSGTSPRTICCAMPSTMDVLPTPGSPIKTGLFFVRRDRTRMVRNTSSARPISGSSLPSSACRHMSIAYLDNAS,not soluble
15,MAHHHHHHMLRRVVAPAPVSATAACAGQARSIYEYKFGQTPLTQPFGGTSRLPPGPSSNPAPVAPGKVEITKLHNGARVITHNLGGPSVSVGAYILAGPAYDPPSAPGAGAMMHLALTTSNYNNSLFQLDRNIRSVGAAQSHFEKHKHYIGIRIDARADKWKSAASTSSFSQRRQLQNQKQAEQQFSLNLVQDNIFTCIAAPRFHEPDVERFRDTIDNQVEELRWQCPAEYAKQMLETVAFYREPLGNPRFVPAMSNSIISSSVLLEQYSRYIVPSRVVVAGVNVDHAALIAEYENTPFPHSASAPHHARAQPCVVNWKDEASQYTGGERHDHEDRPKVMGTKPDMDPESIIAVGWLAYGKDRKMVKDHAASMVVGALMDIGFSGCMRCGAPDEMHEHTGLRAFYNPYQTAGLIGFTAKAEPQAAVRMVTDAVKMVRASQASVADSMLSVAKKMAKTQFMVQTVDTIRDYCDYLGTCLAVDSDSTLATSVEEVVDAINSVNAADVKRVYEKMFSNKTSLYGHGEMLGFPSMRQMGL,not soluble
16,MAHHHHHHMLTIVDELKAAVMARHEADAPKMKILKEKYKNEKLSDATIDAAYGGMRGITGLIYESSMLDKEQGICFRGMTIPECCEKIPKSWKGGTSPLPEGMLWLLMTGSIPTDKQVKELHVELHRRADNEAITAATKTIASLPENTHPMTQLSTGVLALQAFSKFAPAYASGKAIKSNFWEYALEDSLDIIARTPYLAAAIYNRLTTGRAAVLNPANPDLDWAANFTNMLGYQDEKFWDCMRLYLSLHADHEGGNVSAHATTLVASALSDPYLSFSAGLNGLAGPLHGLANQESLSYLFEMRDKCKAAGVNMKDRKELAAGLEKLTWERLNAKRVIPGYGHAVLRIPDPRYMCLREYCLKHFPDDELFFLVDTIYSIMPDILKKHGKTKNPFPNVDAHSGMLLQHFGLTEQNFYTVLFGISRQLGALTGVVWDRLQGRPIERPKSITSDALFKKFKIE,not soluble
17,MAHHHHHHMMLRRLFVFDAARATNMRFLTMTSEVRDNLTKQLSALKEECRGQGLDLADMSDASRVAMRTVQEGLTRVSVEDEIFKGKSITLSASMKAYTARLSNLQDEARSIQTEVDALLKMMWGTEAPTKAASFASPPRSTEEVGVSSSSAAAAAGGKGNETVDDEFIVEPPPLAKALGNDKRPAERVEAERVQGTAHKPVEEMRVEEIEVETIEVEVEPNESPADNMKITDITRELYERGVNFSDCLDARTLRQRYKDVLAGKISPGISPGTATSSPATAEANTNQPRMPQHRPYQQQQQQQQQQLNTNESGLAHDPYPNAYRKMVDPMKHVWELKNELAAEKGIDPKSVDLWSGKCKLEDHKLLYDYPSVQNYPIEVRQKGDIPR,not soluble
18,MAHHHHHHMMPTQSEEQTKAQIPKSQAKIVNELIENKDTICAWCFDVLKYELKNEKFDKVPPLIQSLHNDGFKIPFFVKWMKLNDVKDMGSYNYDAYELNGCIGCLGETDIMELRYYALESSLNDTRFYPITLKDFPFLIVTITYLFNFEKCAHVYDWVIGKHGIKISFVANKRRYSSTFLPEVASQHNFDHQTTVKKLIRKANYRGEINDELLENIEVERYEGVSCSLTHVDYERVKRD,soluble
